Measurements from patent US20070253950A1.

How the values were obtained:
[1] = molecular target: human RAGE-strep tag fusion protein (human) (UniProt Q15109); experiment: BIACORE capture assay: hRAGE-SA over antibody captured on anti-human Fc; 1:1 Langmuir global fit; FC3
[2] = molecular target: human RAGE-strep tag fusion protein (human) (UniProt Q15109); experiment: BIACORE capture assay: hRAGE-SA over antibody captured on anti-human Fc; 1:1 Langmuir global fit; average of FC2-FC4
[3] = molecular target: murine RAGE-strep tag fusion protein (murine) (UniProt Q62151); experiment: BIACORE capture assay: mRAGE-SA (SA-Mu RAGE) over antibody captured on anti-human Fc; 1:1 Langmuir global fit; FC3
Chain of murine RAGE-strep tag fusion protein (murine) (Q62151 other isoform, or with tags, fused parts or gaps): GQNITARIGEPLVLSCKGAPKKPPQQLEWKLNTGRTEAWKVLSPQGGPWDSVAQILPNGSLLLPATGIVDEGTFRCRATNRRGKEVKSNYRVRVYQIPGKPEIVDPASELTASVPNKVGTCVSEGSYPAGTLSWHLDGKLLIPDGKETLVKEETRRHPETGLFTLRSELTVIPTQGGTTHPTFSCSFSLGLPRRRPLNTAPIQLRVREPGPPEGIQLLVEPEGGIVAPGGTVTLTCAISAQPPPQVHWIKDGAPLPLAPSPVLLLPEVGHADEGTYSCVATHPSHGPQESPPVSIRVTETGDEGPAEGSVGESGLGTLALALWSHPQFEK

[4] = molecular target: human RAGE-strep tag fusion protein (human) (UniProt Q15109); experiment: BIACORE capture assay: hRAGE-SA over antibody captured on anti-human Fc; 1:1 Langmuir global fit; FC2
[5] = molecular target: murine RAGE-strep tag fusion protein (murine) (UniProt Q62151); experiment: BIACORE capture assay: mRAGE-SA (SA-Mu RAGE) over antibody captured on anti-human Fc; 1:1 Langmuir global fit; average of FC2-FC4
[6] = molecular target: murine RAGE-strep tag fusion protein (murine) (UniProt Q62151); experiment: BIACORE capture assay: mRAGE-SA (SA-Mu RAGE) over antibody captured on anti-human Fc; 1:1 Langmuir global fit; FC2
[7] = molecular target: human RAGE-strep tag fusion protein (human) (UniProt Q15109); experiment: BIACORE capture assay: hRAGE-SA over antibody captured on anti-human Fc; steady state affinity; average of FC2-FC4
[8] = molecular target: human RAGE-strep tag fusion protein (human) (UniProt Q15109); experiment: BIACORE capture assay: hRAGE-SA over antibody captured on anti-human Fc; 1:1 Langmuir global fit; FC4
[9] = molecular target: human RAGE-strep tag fusion protein (human) (UniProt Q15109); experiment: BIACORE capture assay: hRAGE-SA over antibody captured on anti-human Fc; steady state affinity; FC2
[10] = molecular target: human RAGE-strep tag fusion protein (human) (UniProt Q15109); experiment: BIACORE capture assay: hRAGE-SA over antibody captured on anti-human Fc; steady state affinity; FC3
[11] = molecular target: murine RAGE-strep tag fusion protein (murine) (UniProt Q62151); experiment: BIACORE capture assay: mRAGE-SA (SA-Mu RAGE) over antibody captured on anti-human Fc; 1:1 Langmuir global fit; FC4
[12] = molecular target: human RAGE-strep tag fusion protein (human) (UniProt Q15109); experiment: BIACORE capture assay: hRAGE-SA over antibody captured on anti-human Fc; steady state affinity; FC4

Chain of human RAGE-strep tag fusion protein (human) (Q15109 other isoform, or with tags, fused parts or gaps): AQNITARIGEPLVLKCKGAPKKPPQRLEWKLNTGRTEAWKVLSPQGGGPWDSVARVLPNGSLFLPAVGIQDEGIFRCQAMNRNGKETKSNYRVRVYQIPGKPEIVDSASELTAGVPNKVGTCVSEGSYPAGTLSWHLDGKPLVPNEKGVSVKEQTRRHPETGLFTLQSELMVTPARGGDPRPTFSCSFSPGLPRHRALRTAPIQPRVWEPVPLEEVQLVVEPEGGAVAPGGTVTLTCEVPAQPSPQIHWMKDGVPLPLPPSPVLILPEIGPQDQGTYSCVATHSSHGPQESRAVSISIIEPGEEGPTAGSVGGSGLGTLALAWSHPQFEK

Kd [1]	koff [1]	kon [1]	Kd [2]	koff [2]	kon [2]	Kd [3]	koff [3]	kon [3]	Kd [4]	koff [4]	kon [4]	Kd [5]	koff [5]	kon [5]	Kd [6]	koff [6]	kon [6]	Kd [7]	Kd [8]	Binder	further results
0.0182 µM	0.0569 s⁻¹	3.13e+06 M⁻¹ s⁻¹	0.0234 µM	0.0457 s⁻¹	2.3e+06 M⁻¹ s⁻¹	0.0029 µM	0.0076 s⁻¹	2.6e+06 M⁻¹ s⁻¹	0.0318 µM	0.00972 s⁻¹	306000 M⁻¹ s⁻¹	0.003 µM	0.0077 s⁻¹	2.6e+06 M⁻¹ s⁻¹	0.003 µM	0.0078 s⁻¹	2.6e+06 M⁻¹ s⁻¹	0.025 µM	0.0203 µM	XT-M4-V10 (antibody, from a related filing, V domains shown) VH: EVQLVESGGGLVQPGGSLRLSCAASGFTFNNYWMTWVRQAPGKGLEWVASIDNSGDNTYYPDSVKDRFTISRDNAKNSLYLQMNSLRAEDTAVYYCARGGDITTGFDYWGQGTLVTVSS VL: DIQMTQSPSSLSASVGDRVTITCRASQDVGIYVNWFQQKPGKAPKRLIYRATNLADGVPSRFSGSGSGTDFTLTISSLQPEDFATYYCLEFDEHPLTFGGGTKVEIK	koff [8]: 0.0704 s⁻¹; kon [8]: 3.47e+06 M⁻¹ s⁻¹; Kd [9]: 0.025 µM; Kd [10]: 0.024 µM; Kd [11]: 0.003 µM; koff [11]: 0.0078 s⁻¹; kon [11]: 2.6e+06 M⁻¹ s⁻¹; Kd [12]: 0.026 µM
0.012 µM	0.039 s⁻¹	3.4e+06 M⁻¹ s⁻¹	0.0125 µM	0.0374 s⁻¹	3.01e+06 M⁻¹ s⁻¹	0.002 µM	0.0042 s⁻¹	2.1e+06 M⁻¹ s⁻¹	0.013 µM	0.033 s⁻¹	2.5e+06 M⁻¹ s⁻¹	0.002 µM	0.0042 s⁻¹	2.1e+06 M⁻¹ s⁻¹	0.002 µM	0.0043 s⁻¹	2.2e+06 M⁻¹ s⁻¹	0.016 µM	0.013 µM	XT-M4-V11 (antibody, from a related filing, V domains shown) VH: EVQLVESGGGLVQPGGSLRLSCAASGFTFNNYWMTWVRQAPGKGLEWVASIDNSGDNTYYPDSVKDRFTISRDNAKNSLYLQMNSLRAEDTAVYYCARGGDITTGFDYWGQGTLVTVSS VL: DIQMTQSPSSLSASVGDRVTITCRASQDVGIYVNWFQQKPGKAPRRLIYRATNLADGVPSRFSGSRSGTDFTLTISSLQPEDFATYYCLEFDEHPLTFGGGTKVEIK	koff [8]: 0.041 s⁻¹; kon [8]: 3.2e+06 M⁻¹ s⁻¹; Kd [9]: 0.016 µM; Kd [10]: 0.015 µM; Kd [11]: 0.002 µM; koff [11]: 0.0041 s⁻¹; kon [11]: 2e+06 M⁻¹ s⁻¹; Kd [12]: 0.017 µM
0.0117 µM	0.0464 s⁻¹	3.96e+06 M⁻¹ s⁻¹	0.0129 µM	0.0497 s⁻¹	3.88e+06 M⁻¹ s⁻¹	0.0019 µM	0.004 s⁻¹	2.1e+06 M⁻¹ s⁻¹	0.0138 µM	0.0366 s⁻¹	2.66e+06 M⁻¹ s⁻¹	0.002 µM	0.0042 s⁻¹	2.1e+06 M⁻¹ s⁻¹	0.002 µM	0.0043 s⁻¹	2.2e+06 M⁻¹ s⁻¹	0.016 µM	0.0132 µM	XT-M4-V14 (antibody, from a related filing, V domains shown) VH: EVQLVESGGGLVQPGGSLRLSCAASGFTFNNYWMTWVRQAPGKGLEWVASIDNSGDNTYYPDSVKDRFTISRDNAKNSLYLQMNSLRAEDTAVYYCARGGDITTGFDYWGQGTLVTVSS VL: DIQMTQSPSSLSASVGDRVTITCRASQDVGIYVNWFQQKPGKAPKRLIYRATNLADGVPSRFSGSRSGTDFTLTISSLQPEDFATYYCLEFDEHPLTFGGGTKVEIK	koff [8]: 0.0661 s⁻¹; kon [8]: 5.02e+06 M⁻¹ s⁻¹; Kd [9]: 0.016 µM; Kd [10]: 0.015 µM; Kd [11]: 0.002 µM; koff [11]: 0.0041 s⁻¹; kon [11]: 2.1e+06 M⁻¹ s⁻¹; Kd [12]: 0.016 µM
